# Measured values published in patent US20210087270A1 (INNATE PHARMA, published 2021).
# Biological target: T1, KIR3DL1 (CD158e1) (UniProt P43629 22-444, limits assumed)
# T1 construct: also called closely related KIR3DL1
# Assay: hybridoma screening (flow cytometry, incl. HEK-293T/KIR3DL1 Domain 0-eGFP)
# Description: Antibodies which bind KIR3DL2 but not closely related KIR3DL1 were generated by immunizing mice with recombinant KIR3DL2-Fc fusion protein, described in US patent publication number US-2015-0232556-A1. Supernatant (SN) of the growing hybridomas were tested by flow cytometry on Sezary Syndrome cell lines (HUT78, COU-L) and HEK-293T/KIR3DL2 Domain 0-eGFP. Potentially interesting hybridomas selected from the initial screening were cloned by limiting dilution techniques in 96-wells plates. The secondary screen involved selection of hybridomas of interest by testing supernatants of the subclones by flow cytometry on HUT78, COU-L, HEK-293T/KIR3DL1 Domain 0-eGFP and HEK-293T/KIR3DL2 Domain 0-eGFP. Positive subclones were injected into mice to produce ascitis and antibodies of interest were purified before being tested in a Biacore assay using rec KIR3DL2 chips, followed by various assays formats based on binding to human KIR3DL2-expressing cells.
# T1 sequence (P43629 22-444 limits assumed): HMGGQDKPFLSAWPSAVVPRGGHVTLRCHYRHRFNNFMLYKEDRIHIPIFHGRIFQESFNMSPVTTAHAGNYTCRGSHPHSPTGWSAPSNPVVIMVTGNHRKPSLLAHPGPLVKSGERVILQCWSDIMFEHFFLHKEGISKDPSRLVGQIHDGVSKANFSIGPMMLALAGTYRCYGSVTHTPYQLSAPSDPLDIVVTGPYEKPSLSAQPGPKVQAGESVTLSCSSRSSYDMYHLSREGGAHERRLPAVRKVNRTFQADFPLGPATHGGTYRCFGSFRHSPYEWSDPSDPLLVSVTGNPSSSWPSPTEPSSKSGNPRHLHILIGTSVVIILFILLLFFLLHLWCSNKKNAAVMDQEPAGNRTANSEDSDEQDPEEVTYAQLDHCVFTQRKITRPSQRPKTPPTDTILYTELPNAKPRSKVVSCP
row,Binder,binding result
1,"antibody 10G5 (antibody, V domains shown) VH: QVQLQQSAAELARPGASVKMSCKASGYTFTSYTMHWVKQRPGQGLEWIGYINPSSGYTENNRKFKDKTTLTADKSSSTAYMQLSSLTSEDSAVYYCARLGKGLLPPFDYWGQGTTLTVSS VL: DIQMTQSPASLSVSVGETVTITCRASENIYSNLAWYQQKQGKSPQLLVYAATNLADGVPSRFSGSGSGTQYSLKINSLQSEDFGSYYCQHFWGTPYTFGGGTKLEIK",no binding

# Biological target: T2, human KIR3DL2 (CD158k), wild type, at the cell surface (human, UniProt P43630 22-455)
# T2 construct: also called WTaKIR3DL2; un-mutated wild type KIR3DL2
# T2 sequence (P43630 22-455 E158D): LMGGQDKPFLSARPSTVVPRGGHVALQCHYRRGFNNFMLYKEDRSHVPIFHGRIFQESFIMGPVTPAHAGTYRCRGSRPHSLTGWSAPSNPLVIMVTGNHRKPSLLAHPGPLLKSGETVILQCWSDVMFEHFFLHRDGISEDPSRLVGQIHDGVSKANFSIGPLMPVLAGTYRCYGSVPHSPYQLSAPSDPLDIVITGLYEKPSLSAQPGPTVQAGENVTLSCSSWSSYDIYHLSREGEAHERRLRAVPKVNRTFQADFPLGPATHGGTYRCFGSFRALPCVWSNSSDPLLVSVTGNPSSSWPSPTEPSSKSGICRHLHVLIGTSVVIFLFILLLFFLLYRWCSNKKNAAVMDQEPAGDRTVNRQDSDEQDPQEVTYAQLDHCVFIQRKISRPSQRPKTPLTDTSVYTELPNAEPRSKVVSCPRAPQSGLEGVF
# Assay: fluoro-microscopy on HUT78 cells, 10 µg/ml, goat anti-mouse Alexa594
# Description: Internalization of antibodies 10F6, 2B12, 18C6, 9E10, 10G5, 13H1, 4B5, 5H1, 1E2, 1C3 and 20E9, as well as antibody AZ158 (an anti-domain 0 mAb as comparator) and other anti-D1 antibodies as disclosed in PCT applications WO2014/044686 and WO2014/044681 were assessed by fluoro-microscopy using the HUT78 SS cell line.
# Hut-78 cells were incubated during 1H at 4° C. with 10 μg/ml of the different antibodies. After this incubation cells were either fixed (t=OH) or incubated for 2H at 37° C. Cells incubated for 2H were then fixed and stained. Antibodies were stained using goat anti-mouse antibodies coupled to Alexa594 (Invitrogen, A11032). […] Pictures were acquired using an Apotome device (Zeiss) and analyzed using the Axiovision software.
row,Binder,binding result
1,"antibody 20E9 (antibody, V domains shown) VH: QVQLQQSGAEVARPGASVKLSCKSSGFTFTTYWMQWVKQRPGQGLEWIGAIYPGDGDTRYTQKFKGKATLTADKSSITAYMQLSSLASEDSAVYYCARRGDYGNYGMDYWGQGTSVTVSS VL: DVLMTQTPLSLPVSLGDQASISCRSSQSIVHSNGNTYLEWYLQKPGQSPKLLIYKVSNHFSGVPDRFSGSGSGTDFTLKISRVEAEDLGVYYCFQGSHVPPTFGGGTKLEIK",binds
2,"antibody 13H1 (antibody, V domains shown) VH: EVQLQQSGPELVKPGASMKISCKASHYSFIGYTMNWVKQRHGKNLEWIGLINPYNGDTTYNQKFKGKASLTVDKSSSTAYMEILSLTSEDSAVYYCARENWGYPYAMDYWGQGTSVTVS VL: not shown",binds
3,"antibody 10F6 (antibody, V domains shown, Detected with goat anti-mouse antibody) VH: QIQLVQSGPELKKPGETVRISCKASGYTFTIAGMQWVQKMPGKGLKWIGWINTHSGVPKYAEDFKGRFAFSLETSANIAYLQISNLKNEDTATYFCARGGDEGVMDYWGQGTSVTVS VL: DIVMTQSHKFMSTSVGDRVSITCKASQDVSTAVAWYHQKPGQSPKLLIYWASTRHTGVPDRFSGSGSGTDYTLTISALQAEDLALYYCQQHYNTPWTFGGGTKLEIK",binds
4,"antibody 1E2 (antibody, V domains shown) VH: QVQLQQSGAELVRPGVSVKISCKGSGYTFTDYAMNWVKQSHAKSLEWIGVISTYYGDANYNQKFKGKATMTVDKSSSTAYMELARLTSEDSAIYYCALIYYDYDGSYWGQGTTLTVS VL: DVVMTQTPLSLPVSLGDQASISCRSSQSLVHSNGNTYLHWYLQKPGQSPKLLIYKVSNRFSGVPDRFSGSGSGTDFTLKISRVEAEDLGVYFCSQSTHVPPYTFGGGTKLEIK",binds
5,"antibody 1C3 (antibody, V domains shown) VH: QVQLQQSGAELARPGASVKLSCKASGYTFTSYWMQWVKQRPGQGLEWIGAIYPGDGDTRYTQKFKGKATLTADKSSSTAYMQLSSLASEDSAVYYCARRYDGYYHFDYWGQGTTLTVS VL: DIVMTQSPSSLAVTAGEKVTMSCKSSQSLLWSVNQKNYLSWYQQKQRQPPKLLIYGASIRESWVPDRFTGSGSGTDFTLTISNVHAEDLAVYYCQHNHGSFLPLTFGSGTKLEIK",binds
